Test results taken from patent US20200071424A1 (SHIONOGI, published 2020).
Substitutions are numbered along the chain they refer to.

T1: human [1-305]-mouse chimeric EL (human; mouse, UniProt Q9WVG5 306-500)
T1 sequence: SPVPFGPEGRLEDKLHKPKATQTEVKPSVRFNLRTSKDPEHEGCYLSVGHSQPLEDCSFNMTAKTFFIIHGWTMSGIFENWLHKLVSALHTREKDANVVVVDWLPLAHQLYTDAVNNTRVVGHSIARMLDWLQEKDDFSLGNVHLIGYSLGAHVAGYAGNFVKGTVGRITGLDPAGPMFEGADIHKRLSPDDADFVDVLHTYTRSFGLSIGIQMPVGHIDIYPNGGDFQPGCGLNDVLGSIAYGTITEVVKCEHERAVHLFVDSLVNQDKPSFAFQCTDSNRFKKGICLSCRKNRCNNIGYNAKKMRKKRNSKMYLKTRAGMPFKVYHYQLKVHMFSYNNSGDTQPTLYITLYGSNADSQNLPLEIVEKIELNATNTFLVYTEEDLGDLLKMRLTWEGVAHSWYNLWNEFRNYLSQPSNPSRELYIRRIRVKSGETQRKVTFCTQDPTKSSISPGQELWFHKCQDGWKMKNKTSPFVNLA

B1: h55A1-F5 (antibody, V domains shown)
VH: QVQLVQSGAEVKKPGASVKVSCKASGYTFTNYGMNWVRQAPGQGLEWMGWINTYSGVPTYAGDFKGRFTFTLDTSTSTAYMELSSLRSEDTAVYYCARRGYYGRRYFDVWGKGTTVTVSS
VL: DIQLTQSPSSLSASVGDRVTITCKASQSVDYDVDSYMHWYQQKPGKAPKLLIYAASNLASGVPSRFSGSGSGTDFTLTISSLQPEDFATYYCQQTIEDPPTFGGGTKVEIK
notes: humanized
B2: h55A1-F2 (antibody, V domains shown)
VH: B1 VH with F68V, F70M, L72T, S84R, E89D
VL: EIVMTQSPATLSVSPGERATLSCKASQSVDYDVDSYMHWYQQKPGQAPRLLIYAASNLASGIPARFSGSGSGTEFTLTISSLQSEDFAVYYCQQTIEDPPTFGGGTKVEIK
notes: humanized
B3: h55A1-F1 (antibody, V domains shown)
VH: B1 VH with A9S, V11L, T69V, T71S, T76V, M81L, E82Q, L83I, R87K, S88A
VL: B1 VL with L77F, F87I
notes: humanized
B4: h55A1-F3 (antibody, V domains shown)
VH: B1 VH with F68V, F70M, L72T, S84R, E89D
VL: B1 VL
notes: humanized
B5: h55A1-F6 (antibody, V domains shown)
VH: B1 VH
VL: B2 VL
notes: humanized
B6: h55A1-F4 (antibody, V domains shown)
VH: B1 VH with F68V, F70M, L72T, S84R, E89D
VL: B2 VL with M4L, A9G, V13L, A64D, E74D, S81R, Q83E, S84P
notes: humanized
B7: h16B3-F1 (antibody, V domains shown)
VH: EVQLVESGGGLVQPGGSLRLSCAASGFTFSGYTMSWVRQAPGKGLEWVSEISFARDRAFYPDTVKGRFTISRDNSKNTLYLQMNSLRAEDTAVYYCARLGGRNHDYWYFDVWGQGTTVTVSS
VL: DIQMTQSPSSLSASVGDRVTITCRASESVEYYGTSLMQWYQQKPGKAPKLLIYAASNVESGVPSRFSGSGSGTDFTLTISSLQPEDFATYYCQQSWKVPFTFGQGTKLEIK
notes: humanized
B8: h16B3-F2 (antibody, V domains shown)
VH: B7 VH
VL: EIVMTQSPATLSVSPGERATLSCRASESVEYYGTSLMQWYQQKPGQAPRLLIYAASNVESGIPARFSGSGSGTEFTLTISSLQSEDFAVYYCQQSWKVPFTFGQGTKLEIK
notes: humanized
B9: h16B3-F3 (antibody, V domains shown)
VH: B7 VH
VL: B8 VL with M4L, A9G, V13L, A64D, E74D, S81R, Q83E, S84P
notes: humanized
B10: h55A1-S2 (antibody, V domains shown)
VH: QVQLVQSGSELKKPGASVKVSCKASGYTFTNYGLNWVRQAPGQGLEWMGWINTYSGVPTYAGDFKGRFVFSLDTSVSTAYLQISSLKAEDTAVYYCARRGYYGRRFFDVWGKGTTVTVSS
VL: DIVLTQSPASLAVSPGQRATITCKASQSVDYDVDSYMHWYQQKPGQPPKLLIYAASNLASGVPARFSGSGSGTDFTLTINPVEANDTANYYCQQTIEDPPTFGGGTKVEIK
notes: humanized
B11: h55A1-S3 (antibody, V domains shown)
VH: B10 VH
VL: B10 VL with Q94N
notes: humanized
B12: h55A1-S6 (antibody, V domains shown)
VH: B10 VH with G33A, P58G, D63E, Y101F
VL: B10 VL
notes: humanized
B13: h55A1-S5 (antibody, V domains shown)
VH: B10 VH with G33A, L34M, P58G, Y101F
VL: B10 VL with Q94N
notes: humanized
B14: h55A1-S7 (antibody, V domains shown)
VH: B10 VH with G33A, P58G, D63E, Y101F
VL: B10 VL with Q94N
notes: humanized
B15: h53A11-S4 (antibody, V domains shown)
VH: QVQLVQSGAEVKKPGASVKVSCKASGYTFTDYTMHWVRQAPGQRLEWMGGINPYYGGTTYNEKFKDRVTITRDTSASTAYMELSSLRSEDTAVYYCARGDYYGGSYNYWGQGTTVTVSS
VL: EIVMTQSPATLSVSPGERATLSCRASQDISNSLHWYQQKPGQAPRLLIKYASQSISGIPARFSGSGSGTEFTLTISSLQSEDFAVYYCQQSNSWPYTFGQGTKLEIK

The binders below were run against T1, human [1-305]-mouse chimeric EL (assay: cell-based or functional assay).

Neutralizing activity IC50 [nM]	Binder
1.3	B1
2.1	B2
1.9	B3
1.1	B4
2.3	B5
2.4	B6
2.3	B7
2.4	B8
2	B9
1.1	B10
1.2	B11
1.2	B12
1.3	B13
1	B14

Each binder was assayed against T1, human [1-305]-mouse chimeric EL (assay: Biacore; EL captured by anti-C2-tag Ab; bivalent fit).
Protocol: The binding affinities of anti-EL antibodies were measured using Biacore. […] Then, anti-EL humanized antibodies were added and the binding affinities were calculated by bivalent fitting of BIAevaluation software.

Kd [nM]	koff [s⁻¹]	kon [M⁻¹ s⁻¹]	Binder
0.11	1.6e-05	140000	B1
0.17	2.6e-05	160000	B2
0.084	1.7e-05	200000	B3
0.29	3.3e-05	110000	B4
0.3	4.8e-05	160000	B5
0.22	3e-05	140000	B6
5.2	0.0002	38000	B7
3.8	0.00011	29000	B8
10	0.0002	19000	B9
11	0.00037	35000	B10
4.2	0.00051	120000	B11
1.4	6.3e-05	47000	B12
12	0.00033	27000	B13
5.1	0.00055	110000	B14

These binders were tested against cynomolgus monkey EL (cynomolgus monkey) (assay: cell-based or functional assay).

Neutralizing activity IC50 [nM]	Binder
12	B15
